The values below come from publication PMC12209172, “Poly(ADP-ribose)polymerase 2 is zinc-dependent enzyme and nucleosome reorganizer” (Cellular and Molecular Life Sciences: CMLS, 2025).

For one experiment, the target named is T1, NP nucleosomes (Homo sapiens, UniProt Q9UGN5).
T1 construct: WGR domain of PARP2 (residues 77–220) into pET-15b-TEV expression vector; 6xHis (pET-15b-TEV) (N, cleaved yes); made in house; host or cells: Escherichia coli Rosetta2 (DE3) pLysS (WGR)
Description: EMSA of WGR domain-nucleosome complexes (0.7% agarose gel). The class given is binding, chicken. As to conditions: no divalent cations or 2 mM Zn2+. The protocol: Sample preparation for EMSA was the same as for spFRET microscopy, although a slightly higher concentration of nucleosomes (2–3 nM) was used. […] Electrophoresis was performed under native conditions at 140 V, + 4 °C for ∼1.5 h. The gels were scanned using Amersham Typhoon RGB imager (Cytiva, Sweden). Fluorescence was excited in the gel at the 532 nm wavelength and recorded in the 570–610 nm (Cy3 signal) and 650–700 nm (FRET signal of Cy5) spectral regions. The resulting images were obtained in green (Cy3 signal) and red (FRET signal of Cy5) colors and merged.
Fig. 3 WGR domain of PARP2 binds zinc ions and reorganizes nucleosome structure. (a) A model of Zn^2+ binding to the WGR domain created on the basis of the PDB structure 6F5B. Two putative binding sites are shown. N- and C-terminal ends of the WGR domain are indicated. The numbering of the residues corresponds to the numbering of the complete PARP2 sequence. (b) CD spectra of the WGR domain (60 µM) in a buffer containing no divalent cations (Me^2+) or 0.5 mM Zn^2+ ions. (c) Content of canonical types of secondary structures in the WGR domain of PARP2 according to the analysis of CD spectra of the WGR domain measured in the absence or presence of 0.5 mM Zn^2+ ions. (d) Changes in the fluorescence spectra of tryptophan residues 148, 151 and 188 of the WGR domain (5 µM) at different concentrations of Zn^2+ ions. […]

The target of the next experiment is T2, Nd nucleosomes (Homo sapiens, UniProt Q9UGN5).
T2 construct: WGR domain of PARP2 (residues 77–220) into pET-15b-TEV expression vector; made in house; host or cells: Escherichia coli Rosetta2 (DE3) pLysS
Description: Fluorescence microscopy of Nd nucleosomes binding to His-tagged WGR immobilized on Ni-NTA beads. Also on record: species or system chicken. The following applies: beads with immobilized His-tagged WGR vs without. The method, then: The binding of nucleosomes to the WGR domain was confirmed after immobilization of the protein containing His-tag on the surface of Ni-NTA beads using fluorescence microscopy (Figure S6).
Figure S6. Confocal fluorescence (a, c, e) and transmitted-light (b, d, f) imaging of Ni-NTA beads with (a, b, e, f) or without
(c, d) immobilized 6 ×His-WGR. The beads were additionally incubated with Nd nucleosomes (a, b, c, d). The parameters of
measurements and intensity scales in fluorescent images(a, c, e)are the same. […]

B1: WGR domain: recombinant WGR domain of PARP2 (residues 77–220) expressed in Escherichia coli (protein, UniProt O88554 77-220, looked up, fragment)
chain: ECAAKLGKAHVYCEGDDVYDVMLNQTNLQFNNNKYYLIQLLEDDAQRNFSVWMRWGRVGKTGQHSLVTCSGDLNKAKEIFQKKFLDKTKNNWEDRENFEKVPGKYDMLQMDYAASTQDESKTKEEETLKPESQLDLRVQELLKL
modifications: WGR domain
notes: recombinant WGR domain of PARP2 (residues 77–220) expressed in Escherichia coli
On to B1, for which the “binding of the WGR domain to nucleosomes” value with NP nucleosomes is “binds to nucleosomes in the presence and absence of Zn^2+ ions”. Moreover, the “binding of Nd nucleosomes to Ni-NTA beads” value with Nd nucleosomes was “strongly increased”.
